From patent US20120058906A1 (published 2012)

Legend:
[1] = molecular target: T1, rHuman CD44/Fc Chimera, CF (R&D Systems Cat#3660-CD) (human, UniProt P16070 21-220); assay: MSD ECL multi-spot plate, antigen immobilized; Fab 200 nM; blank spot 529
T1 construct: Purchased Fc chimera; not shown: Fc portion of the purchased chimera

[2] = molecular target: T2, rHuman IGF-1 sR (IGF-1 sR), CF (R&D Systems Cat#391-GR) (human, UniProt P08069 31-932); assay: as above
T2 construct: Purchased soluble receptor; also called insulin-like growth factor-1 soluble receptor; IGF-R1

[3] = molecular target: T3, rHuman ErbB2/Fc Chimera, CF (R&D Systems Cat#1129-ER) (human, UniProt P04626 23-652); assay: as above
T3 construct: Purchased Fc chimera; also called HER2/neu; not shown: Fc portion of the purchased chimera

[4] = molecular target: T4, rHuman Notch-1/Fc Chimera, CF (R&D Systems Cat#3647-TK) (human, UniProt P46531 19-526); assay: as above
T4 construct: Purchased Fc chimera; not shown: Fc portion of the purchased chimera

[5] = molecular target: T5, rHuman EGF R/Fc Chimera, CF (R&D Systems Cat#344-ER) (human, UniProt P00533 25-645); assay: as above
T5 construct: Purchased Fc chimera; not shown: Fc portion of the purchased chimera

[6] = molecular target: T6, rHuman Erythropoietin R/Fc Chimera, CF (R&D Systems Cat#963-ER) (human, UniProt P19235 25-250); assay: as above
T6 construct: Purchased Fc chimera; also called EPO R/Fc; Epo R; not shown: Fc portion of the purchased chimera
T6 sequence: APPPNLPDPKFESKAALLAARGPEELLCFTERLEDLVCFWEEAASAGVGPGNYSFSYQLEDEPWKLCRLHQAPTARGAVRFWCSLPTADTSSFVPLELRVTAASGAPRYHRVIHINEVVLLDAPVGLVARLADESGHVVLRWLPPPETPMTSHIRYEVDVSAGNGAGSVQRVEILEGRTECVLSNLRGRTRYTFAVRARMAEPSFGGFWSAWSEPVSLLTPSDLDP

[7] = molecular target: T7, rHuman HGF R/c-MET/Fc Chimera, CF (R&D Systems Cat#358-MT/CF) (human, UniProt P08581 25-932); assay: as above
T7 construct: Purchased Fc chimera; also called HGF R/Fc; not shown: Fc portion of the purchased chimera

[8] = molecular target: T8, rHuman P-Cadherin/Fc Chimera, CF (R&D Systems Cat#861-PC) (human, UniProt P22223 108-654); assay: as above
T8 construct: Purchased Fc chimera; not shown: Fc portion of the purchased chimera

[9] = molecular target: T9, Recombinant Human DLL4 (R&D Systems Cat#1506-D4/CF) (human, UniProt Q9NR61 27-524); assay: as above
T9 construct: Purchased recombinant protein; also called delta-like protein 4

[10] = molecular target: T10, rHuman CD44/Fc Chimera, CF (R&D Systems Cat#3660-CD) (human, UniProt P16070 21-220); assay: ECL (MSD Multi-Spot) binding assay, antigen spotted on plate; Fab 17 nM; blank spot 143;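 note: blank spot per well as comparator with Hit at signal to blank ratio of 4 or more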
T10 construct: Bought Fc chimera; Fc part of the bought chimera not given

[11] = molecular target: T11, Recombinant Human DLL4 (R&D Systems Cat#1506-D4/CF) (human, UniProt Q9NR61 27-524); assay: as above
T11 construct: Bought recombinant protein; also called delta-like protein 4; rHuman DLL4

[12] = molecular target: T12, rHuman IGF-1 sR (IGF-1 sR), CF (R&D Systems Cat#391-GR) (human, UniProt P08069 31-932); assay: ECL (MSD multi-spot), antigen spotted on plate; Fab 44.1 nM; blank spot 200;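 note: blank spot per well as comparator with Hit at signal to blank ratio of 4 or more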
T12 construct: Bought soluble receptor; also called insulin-like growth factor-1 soluble receptor; IGF-R1

[13] = molecular target: T13, Recombinant Human DLL4 (R&D Systems Cat#1506-D4/CF) (human, UniProt Q9NR61 27-524); assay: as above
T13 construct: Bought reagent; also called delta-like protein 4

[14] = molecular target: T14, rHuman CD44/Fc Chimera, CF (R&D Systems Cat#3660-CD) (human, UniProt P16070 21-220); assay: as above
T14 construct: Bought reagent; Fc part of the bought chimera not given

[15] = molecular target: T15, rHuman ErbB2/Fc Chimera, CF (R&D Systems Cat#1129-ER) (human, UniProt P04626 23-652); assay: as above
T15 construct: Bought reagent; also called HER2/neu; human epidermal growth factor 2 receptor; Fc part of the bought chimera not given

[16] = molecular target: T16, rHuman HGF R/c-MET/Fc Chimera, CF (R&D Systems Cat#358-MT/CF) (human, UniProt P08581 25-932); assay: as above
T16 construct: Bought reagent; also called HGF R/Fc; hepatocyte growth factor receptor; Fc part of the bought chimera not given

[17] = molecular target: T17, rHuman P-Cadherin/Fc Chimera, CF (R&D Systems Cat#861-PC) (human, UniProt P22223 108-654); assay: as above
T17 construct: Bought reagent; also called CDH3; Fc part of the bought chimera not given

[18] = molecular target: T18, rHuman Notch-1/Fc Chimera, CF (R&D Systems Cat#3647-TK) (human, UniProt P46531 19-526); assay: as above
T18 construct: Bought reagent; Fc part of the bought chimera not given

B1: Fab VH5-51_IGHD5-18*01>3_IGHJ4*01_G100R & V3-4_IGLJ1*01 (Fab, V domains shown)
VH: EVQLVQSGAEVKKPGESLKISCKGSGYSFTSYWIGWVRQMPGKGLEWMGIIYPGDSDTRYSPSFQGQVTISADKSISTAYLQWSSLKASDTAMYYCARRRYSYGYDYFDYWGQGTLVTVSS
VL: QTVVTQEPSFSVSPGGTVTLTCGLSSGSVSTSYYPSWYQQTPGQAPRTLIYSTNTRSSGVPDRFSGSILGNKAALTITGAQADDESDYYCVLYMGSGISYVFGTGTKVTVL
notes: It was expressed as a Fab: CH1 with tags from Plasmid A and lambda CL from Plasmid E; also called Fab No. 23
ECL signal [1]: 895 ECL signal | ECL signal [2]: 1110 ECL signal | ECL signal [3]: 1450 ECL signal | ECL signal [4]: 1330 ECL signal | ECL signal [5]: 1020 ECL signal | ECL signal [6]: 1180 ECL signal | ECL signal [7]: 1160 ECL signal | ECL signal [8]: 815 ECL signal | ECL signal [9]: 29800 ECL signal

B2: Fab VH5-51_IGHD5-18*01>3_IGHJ4*01 & V3-4_IGLJ1*01 (Fab, V domains shown)
VH: EVQLVQSGAEVKKPGESLKISCKGSGYSFTSYWIGWVRQMPGKGLEWMGIIYPGDSDTRYSPSFQGQVTISADKSISTAYLQWSSLKASDTAMYYCARRGYSYGYDYFDYWGQGTLVTVSS
VL: QTVVTQEPSFSVSPGGTVTLTCGLSSGSVSTSYYPSWYQQTPGQAPRTLIYSTNTRSSGVPDRFSGSILGNKAALTITGAQADDESDYYCVLYMGSGISYVFGTGTKVTVL
notes: Tested as a Fab made in E. coli; also called IGHV5-51*03
ECL signal [10]: 518 | ECL signal [11]: 7160

B3: Fab VH1-46_IGHD3-10*01_IGHJ4*01 & B3_IGKJ1*01 (Fab, V domains shown)
VH: QVQLVQSGAEVKKPGASVKVSCKASGYTFTSYYMHWVRQAPGQGLEWMGIINPSGGSTSYAQKFQGRVTMTRDTSTSTVYMELSSLRSEDTAVYYCAREYYYGSGSYYNDYFDYWGQGTLVTVSS
VL: not shown
notes: also called IGHV1-46*01
ECL signal [12]: 309 | ECL signal [13]: 388 | ECL signal [14]: 302 | ECL signal [15]: 347 | ECL signal [16]: 336 | ECL signal [17]: 343 | ECL signal [18]: 331
